Measured values taken from article PMC10516927, “DNA-bridging by an archaeal histone variant via a unique tetramerisation interface” (Communications Biology, 2023).
Numbering of substitutions follows the chain as printed. Numbers in names are those of the source.

How the values were obtained:
MJ1647 [1] = biological target: T1, MJ1647 (Methanocaldococcus jannaschii, UniProt Q59041 1-96); assay: DNA-bridging pull-down; settings: EMSA: 50 nM DNA, 10 mM Tris/HCl pH 8.0, 222 mM NaCl, 0.4 mM TCEP, 0.1 mg/ml BSA, 5% glycerol, 37 C 15 min; agarose EMSA: same with 110 mM NaCl, no glycerol …
T1 sequence: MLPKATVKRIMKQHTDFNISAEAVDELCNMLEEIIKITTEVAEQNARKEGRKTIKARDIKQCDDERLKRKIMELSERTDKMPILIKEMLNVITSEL

[2] = biological target: MJ1647ΔTM, deletion variant of MJ1647 lacking the C-terminal 27 amino acids (Methanocaldococcus jannaschii) (UniProt Q59041); assay: native MS; nano-electrospray, protein exchanged into 0.5 M ammonium acetate, Synapt mass spectrometer
[3] = biological target: MJ1647ΔTM, deletion variant of MJ1647 lacking the C-terminal 27 amino acids (Methanocaldococcus jannaschii) (UniProt Q59041); assay: SEC-MALS; 100 µl protein at 2.0 mg/ml on a Superose12 10/300 column in buffer N(250), 0.5 ml/min
[4] = biological target: T2, histone variant MJ1647 from Methanocaldococcus jannaschii (Methanocaldococcus jannaschii (strain …, UniProt Q59041)); assay: co-expression with SEC and BS3 cross-linking/SDS-PAGE
T2 chain: T1 sequence

[5] = biological target: the molecule itself; assay: SEC-MALS; 100 µl protein at 2.0 mg/ml on a Superose12 10/300 column in buffer N(250), 0.5 ml/min
[6] = biological target: the molecule itself; assay: cross-linking; BS3 (5 mM), 20 µM monomers, modified N(200) buffer with 10 mM HEPES/NaOH pH 7.5, 25 °C 40 min, SDS-PAGE with SYPRO-Orange; A3 alone, MJ1647 alone and co-expressed A3 and MJ1647; no DNA
[7] = biological target: the molecule itself; assay: crystal structure; X-ray, 1.9 Å; crystals from 0.1 M NaOAc pH 4.6, 10% PEG3350, 5% tacsimate pH 4.6; four chains in the asymmetric unit as two dimers
[8] = biological target: the molecule itself; assay: SEC; elution profiles of purified wild-type MJ1647 and its charge-reversal and cysteine variants compared
A3 [9] = biological target: T3, A3 (Methanocaldococcus jannaschii, UniProt Q58655 1-67); assay: EMSA; single shifted species; EMSA: 50 nM DNA, 10 mM Tris/HCl pH 8.0, 222 mM NaCl, 0.4 mM TCEP, 0.1 mg/ml BSA, 5% glycerol, 37 C 15 min; agarose EMSA: same with 110 mM NaCl, no glycerol; TPM and bridging buffers not in the material; settings: protein: recombinant; tags: untagged; chain copies: 2; label: Cy3 (Methods); blunt
T3 sequence: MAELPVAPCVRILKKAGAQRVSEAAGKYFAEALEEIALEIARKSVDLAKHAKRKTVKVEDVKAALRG

MJ1647ΔTM = biological target: T4, MJ1647ΔTM (Methanocaldococcus jannaschii, UniProt Q59041 1-69, del70-96); assay: EMSA; pattern identical to A3; EMSA: 50 nM DNA, 10 mM Tris/HCl pH 8.0, 222 mM NaCl, 0.4 mM TCEP, 0.1 mg/ml BSA, 5% glycerol, 37 C 15 min; agarose EMSA: same with 110 mM NaCl, no glycerol; TPM and bridging buffers not in the material; settings: protein: recombinant, tags: untagged, chain copies: 2, label: Cy3 (Methods), blunt
T4 sequence: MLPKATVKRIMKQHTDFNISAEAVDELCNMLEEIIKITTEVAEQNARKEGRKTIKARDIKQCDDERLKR

A3 [10] = biological target: T3, A3; assay: EMSA; two species (one or two dimers); EMSA: 50 nM DNA, 10 mM Tris/HCl pH 8.0, 222 mM NaCl, 0.4 mM TCEP, 0.1 mg/ml BSA, 5% glycerol, 37 C 15 min; agarose EMSA: same with 110 mM NaCl, no glycerol; TPM and bridging buffers not in the material; settings: protein: recombinant; tags: untagged; chain copies: 2; label: Cy3 (Methods); 5'-32P for K80E and E95K; blunt
MJ1647 K80E = biological target: T5, MJ1647 K80E (Methanocaldococcus jannaschii, UniProt Q59041 1-96, K80E); assay: EMSA; faster (dimer) complex at low, tetramer complex at higher protein; EMSA: 50 nM DNA, 10 mM Tris/HCl pH 8.0, 222 mM NaCl, 0.4 mM TCEP, 0.1 mg/ml BSA, 5% glycerol, 37 C 15 min; agarose EMSA: same with 110 mM NaCl, no glycerol; TPM and bridging buffers not in the material; settings: protein: recombinant; tags: untagged; chain copies: 2; label: Cy3 (Methods); 5'-32P for K80E and E95K; blunt
T5 sequence: T1 sequence with K80E

MJ1647 E95K = biological target: T6, MJ1647 E95K (Methanocaldococcus jannaschii, UniProt Q59041 1-96, E95K); assay: as above; settings: protein: recombinant; tags: untagged; chain copies: 2; label: Cy3 (Methods); 5'-32P for K80E and E95K; blunt
T6 sequence: T1 sequence with E95K

MJ1647 [11] = biological target: T1, MJ1647; assay: EMSA; single species; EMSA: 50 nM DNA, 10 mM Tris/HCl pH 8.0, 222 mM NaCl, 0.4 mM TCEP, 0.1 mg/ml BSA, 5% glycerol, 37 C 15 min; agarose EMSA: same with 110 mM NaCl, no glycerol; TPM and bridging buffers not in the material; settings: protein: recombinant; tags: untagged; chain copies: 4; label: Cy3 (Methods); 5'-32P for K80E and E95K; blunt

## 685 bp TPM/bridging substrate
MJ1647 [1]
  K half: 2500 nM

## MJ1647ΔTM, deletion variant of MJ1647 lacking the C-terminal 27 amino acids (from UniProt Q59041 1-96) (domain or fragment)
[2]
  stoichiometry N: 2
[3]
  stoichiometry N: 2

B1: histone A3 (MJ1258) from Methanocaldococcus jannaschii (natural protein, UniProt Q58655 1-67, looked up)
chain: T3 sequence
notes: canonical histone A3 of Methanocaldococcus jannaschii, gene MJ1258, cloned into pET-21a(+) via NdeI and XhoI for expression of untagged protein; expected dimer mass 14.5 kDa; Untagged; also called canonical histone A3; source: E. coli Rosetta 2(DE3), purified (heparin, SP Sepharose, SEC); also co-expressed with MJ1647 from pETDuet-1 in E. coli and purified in the same way
[4]
  binding result: no binding
[5]
  stoichiometry N: 2

B2: histone variant MJ1647 from Methanocaldococcus jannaschii (natural protein)
chain: T1 sequence
notes: histone paralogue MJ1647 of Methanocaldococcus jannaschii, histone fold followed by a C-terminal extension of 27 amino acids (tetramerisation module, TM); gene cloned into pET-21a(+) via NdeI and XhoI for expression of untagged protein; expected tetramer mass 44.8 kDa; Untagged; Tetramer in solution (SEC-MALS, native MS); crystallised as dimers at pH 4.6; also called wild-type MJ1647; WT MJ1647; …
[6]
  stoichiometry N: 4
[7]
  stoichiometry N: 2

B3: MJ1647 K80E charge-reversal mutant (natural protein, Methanocaldococcus jannaschii)
chain: T1 sequence with K80E
notes: MJ1647 of Methanocaldococcus jannaschii with the substitution K80E; source: E. coli, purified (as the wild type; plasmid by site-directed mutagenesis or NEBuilder HiFi DNA assembly)
[8]
  binding result: binds

B4: MJ1647 K80E/E95K double charge-reversal mutant (natural protein, Methanocaldococcus jannaschii)
chain: T1 sequence with K80E, E95K
notes: MJ1647 of Methanocaldococcus jannaschii with the substitutions K80E and E95K; source: E. coli, purified (as the wild type; plasmid by site-directed mutagenesis or NEBuilder HiFi DNA assembly)
[8]
  stoichiometry N: 4

B5: MJ1647 E95K charge-reversal mutant (natural protein, Methanocaldococcus jannaschii)
chain: T1 sequence with E95K
notes: MJ1647 of Methanocaldococcus jannaschii with the substitution E95K; source: E. coli, purified (as the wild type; plasmid by site-directed mutagenesis or NEBuilder HiFi DNA assembly)
[8]
  binding result: binds

B6: MJ1647 C28S/C62S (cysteine-free background) (natural protein, Methanocaldococcus jannaschii)
chain: T1 sequence with C28S, C62S
notes: MJ1647 of Methanocaldococcus jannaschii with its two cysteines replaced by serine (C28S, C62S); also called C28S/C62S variant; source: E. coli, purified (as the wild type)
[8]
  stoichiometry N: 4

B7: MJ1647 C28S/C62S/K80C (natural protein, Methanocaldococcus jannaschii)
chain: T1 sequence with C28S, C62S, K80C
notes: MJ1647 of Methanocaldococcus jannaschii with C28S, C62S and K80C; also called single-cysteine substitution K80C; source: E. coli, purified (as the wild type)
[8]
  stoichiometry N: 4

B8: MJ1647 C28S/C62S/E95C (natural protein, Methanocaldococcus jannaschii)
chain: T1 sequence with C28S, C62S, E95C
notes: MJ1647 of Methanocaldococcus jannaschii with C28S, C62S and E95C; also called single-cysteine substitution E95C; source: E. coli, purified (as the wild type)
[8]
  stoichiometry N: 4

B9: MJ1647 C28S/C62S/K80C/E95C (double-cysteine variant) (natural protein, Methanocaldococcus jannaschii)
chain: T1 sequence with C28S, C62S, K80C, E95C
modifications: disulfide bond between C80 and C95 of two chains (reduced only at 25 mM TCEP)
notes: MJ1647 of Methanocaldococcus jannaschii with C28S, C62S, K80C and E95C; also called double-cysteine substitution; source: E. coli, purified (as the wild type)
[8]
  stoichiometry N: 4

B10: 30 bp EMSA template (dsDNA)
DNA 1: CATACTGGTTCCAAAGCATGAAATAGTTCCAA
DNA 2: TTGGAACTATTTCATGCTTTGGAACCAGTATG
A3 [9]
  binding result: binds
MJ1647ΔTM
  binding result: binds

B11: 60 bp EMSA template (dsDNA)
DNA 1: CATACTGGTTCCAAAGCATGAAATAGTTCCAAAAGAAGAAGTTGAGGAGTTTTGAAGAGA
DNA 2: TCTCTTCAAAACTCCTCAACTTCTTCTTTTGGAACTATTTCATGCTTTGGAACCAGTATG
MJ1647ΔTM; 5'-32P for K80E and E95K
  binding result: binds
A3 [10]
  binding result: binds
MJ1647 K80E
  binding result: binds
MJ1647 E95K
  binding result: binds
MJ1647 [11]
  binding result: binds
